In paper doi:10.1101/2025.08.12.669934 (bioRxiv, 2025):
Substitutions are numbered along the chain they refer to.

Assays:
[1] = target: Vps13 F^2465A Y^2466A ^GFP (S. cerevisiae, UniProt Q07878 1-3144, F^2465A | Y^2466A); test: co-IP
Vps13^GFP (wild type) = Vps13^GFP (wild type) (S. cerevisiae, UniProt Q07878 1-3144); test: co-IP

B1: Ypt35-3HA (natural protein, S. cerevisiae, UniProt P38815 1-214, looked up)
chain: MSDKISFLPPEPIQLLDEDSTEPELDIDSQQENEGPISASNSNDSTSHSNDCGATITRTRPRRSSSINANFSFQKAHVSDCTIVNGDHGTKFAVWRITVFLEPNLKAFAAKRESYKIQTYKRYSDFVRLRENLLTRIKTAKPEKLNCLQIPHLPPSVQWYSSWKYQEVNLNKDWLAKRQRGLEYFLNHIILNSSLVEMTKDILIQFLEPSKRVA
- percent recovery relative to WT [1]: 24%

B2: Ypt35 P^10,12A -3HA (natural protein, S. cerevisiae, UniProt P38815 1-214, looked up)
chain: B1 chain with P10A, P12A
- percent recovery relative to WT (Vps13^GFP (wild type)): 19%
